From PMC10668032, “Altered binding affinity of SIX1-Q177R correlates with enhanced WNT5A and WNT pathway effector expression in Wilms tumor”

Target: T1, SIX1-Q177R (human, UniProt Q15475 1-284, Q177R)
T1 sequence: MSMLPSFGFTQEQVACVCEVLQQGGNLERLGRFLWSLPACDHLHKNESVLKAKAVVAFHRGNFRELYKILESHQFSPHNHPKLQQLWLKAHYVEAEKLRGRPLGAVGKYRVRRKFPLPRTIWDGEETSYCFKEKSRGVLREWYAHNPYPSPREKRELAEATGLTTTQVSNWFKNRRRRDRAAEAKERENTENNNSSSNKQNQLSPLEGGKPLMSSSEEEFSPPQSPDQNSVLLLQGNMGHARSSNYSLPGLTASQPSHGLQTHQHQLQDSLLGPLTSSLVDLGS
Test: EMSA; EMSA: Active Motif Gelshift or Thermo LightShift chemiluminescent kit binding buffer, no glycerol, no poly d(I-C), RT 25 min; protein dilutions 1-300 nM; 6% gel in 0.5x TBE; pH and salt not given
Settings: protein: recombinant; tags: N-terminal HA from pGEX-6p1-N-HA (GST removed with PreScission); label: biotin 3' end (both strands, Pierce 3' end-labeling kit); blunt

B1: WNT5A_promoter_EMSA (dsDNA)
DNA 1: CCCGCCCTAAGTGTCAAATTTCCTCCAGGGGAG
DNA 2: CTCCCCTGGAGGAAATTTGACACTTAGGGCGGG
- binding signal: ~10 fold higher affinity than SIX1 on same probe
